# Experimental data taken from US8357523B2, “Beta-glucosidase variant enzymes and related polynucleotides” (Codexis, Inc., priority 2009, dated 2013).
# Assay: High throughput cellobiose assay: fold improvement in cellobiase activity of CelA variants over a control enzyme (Tables 2A-2D, 3, 5, 6, 7)
# Assay type: biochemical
# Details: 3.3 g/l cellobiose, 50° C. and pH 6.5; compared to native CelA (SEQ ID NO: 4)
# Procedure: β-glucosidase activity was also determined using a cellobiose assay, which used cellobiose as substrate. In a total volume of 100 μL, 25 μL clear media supernatant containing CelA enzyme was added to 10 g/L cellobiose (Fluka Cat. No. 22150, Sigma-Aldrich, Inc., St. Louis, Mo.) in 100 mM sodium phosphate buffer (pH 6-7) or sodium acetate buffer (pH 5-5.5). The reaction was incubated at 45-70° C. for an appropriate time (25 minutes to overnight depending on the enzyme concentration) while shaking. Glucose production was determined using an enzymatic glucose assay (K-GLUC, Megazyme, Ireland). 10 μl of each reaction was added to 190 μl GOPOD reagent (supplied as part of the K-GLUC assay kit). The reaction was incubated at 45° C. for 20 minutes and the absorbance of the solution was measured at 510 nm. The GOPOD reagent contains 50 mM Potassium phosphate buffer pH7.4, 0.011M p-hydroxybenzoic acid, 0.008% w/v sodium azide, glucose oxidase (>12,000 U/L), peroxidase (>650 U/L) and 80 mg/L 4-aminoantipyrine. The glucose oxidase enzyme in the reagent reacts with any glucose present in the sample and produces hydrogen peroxide which then reacts with the 4-aminoantipyrine to produce a quinoneimine dye in quantities proportionate with the amount of glucose present and can be measured spectrophotometrically at 510 nm. Detectable β-glucosidase activity was observed under high throughput screening conditions (i.e., pH 7, 50° C.).
# Plasmid libraries containing variant CelA genes were transformed into B. megaterium and plated on Luria-Bertani (LB) agar plates containing 3 μg/mL tetracycline with a DM3 regeneration media overlay (400 mM sodium succinate dibasic, pH 7.3, 0.5% casamino acids, 0.5% yeast extract, 0.4% K2HPO4, 0.2% KH2PO4, 20 mM MgCl2, 0.5% glucose and 0.2% BSA). After incubation for at least 18 hours at 30° C., colonies were picked using a Q-bot® robotic colony picker (Genetix USA, Inc., Beaverton, Oreg.) into shallow, 96-well well microtiter plates containing 180 μL, LB and 10 μg/mL tetracycline. Cells were grown overnight at 37° C. with shaking at 200 rpm and 85% humidity. 10 μL of this culture was then transferred into 96-well microtiter plates (deep well) containing 390 μL A5-glucose-xylose medium and 10 μg/mL tetracycline as described in example 2. The plates were then incubated at 37° C. with shaking at 250 rpm and 85% humidity overnight (˜18-24 hours). The deep plates were centrifuged at 4000 rpm for 15 minutes and the clear media supernatant containing the secreted CelA enzyme was used for the high throughput pNPG or cellobiose assay of Example 5.
# The CelA libraries were screened in high throughput using the cellobiose assay of Example 5 (Substrate: cellobiose; pH: 5-7; temperature: 45-72° C.; time: 2-24 hrs) for the identification of improved variants.
# In shallow, 96-well microtiter plates 25 μL of media supernatant was added to 75 μL of […] cellobiose in 150 mM sodium acetate buffer pH 5-5.5 or 150 mM sodium phosphate buffer pH6-7. After sealing with aluminum/polypropylene laminate heat seal tape (Velocity 11 (Menlo Park, Calif.), Cat#06643-001), the plates were shaken at 45-65° C. for up to 24 hrs. The plates were centrifuged for 5 minutes at 4000 rpm. In shallow well clear microtiter plates, 10 μL of the reaction mixture was added to 190 μL of GOPOD reagent (as in example 5B) per well. The solutions were incubated at 45° C. for 1 hour and absorbance was measured at 510 nm for the identification of active CelA variants.
# Improved CelA variants were identified from the high throughput screening of various CelA variant libraries as described in Example 7, using the cellobiose assay of Example 5 using 3.3 g/l cellobiose at temperatures from 50°-55° C. at a pH in the range of 5.3-6.5. Tables 2A, 2B, 2C, and 2D and Table 3 depict the improvement in activities of CelA variants encompassed by the invention. The assay conditions are indicated in each table. […]
molecule,measurement,value
13 (protein) STAIAQEGAAPAAILHPEKWPRPATQRLIDPAVEKRVDALLKQLSVEEKVGQVIQGDIGTITPEDLRKYPLGSILAGGNSGPNGDDRAPPKEWLDLADAFYRVSLEKRPGHTPIPVLFGIDAVHGHGNIGSATIFPHNIALGATHDPELLRRIGEVTAVEMAATGIDWTFAPALSVVRDDRWGRTYEGFSEDPEIVACYSAAIVEGVQGKFGSKDFMAPGRIVASAKHFLADGGTDQGRDQGDARISEDELIRIHNAGYPPAIDAGVLTVMASFSSWQGIKHHGHKQLLTDVLKGQMGFNGFIVGDWNAHDQVPGCTKFNCPTSLIAGLDMYMAADSWKQLYENTLAQVKDGTIPMARLDDAVRRILRVKVLAGLFEKPAPKDRPGLPGLETLGSPEHRAVGREAVRKSLVLLKNDKGTLPLSPKARVLVAGDGADNIGKQSGGWTISWQGTGNRNDEFPGATSILGGIRDAVADAGGSVEFDVAGQYKTKPDVAIVVFGEEPYAEFQGDVETLEYQPDQKQDLALLKKLKDQGIPVVAVFLSGRPMWVNPELNASDAFVAAWLPGTEGGGVADVLFTDKAGKVQHDFAGKLSYSWPRTAAQTTVNRGDADYNPLFAYGYGLTYKDKSKVGTLPEESGVPAEARQNAGIYFRAGALRLPGRFL,Fold improvement over wildtype CelA,+ (+ = 1.1 to 2.0 fold improvement over native CelA (SEQ ID NO: 4))
18 (protein) STAIAQEGAAPAAILHPEKWPRPATQRLIDPAVEKRVDALLKQLSVEEKVGQVIQGDIGTITPEDLRKYPLGSILAGGNSGPNGDDRAPPKEWLDLADAFYRVSLEKRPGHTPIPVLFGIDAVHGHGNIGSATIFPHNIALGATHDPELLRRIGEVTAAEMAATGIDWTFAPALSVVRDDRWGRTYEGFSEDPEIVAAYSAAIVEGVQGKFGSKDFMAPGRIVASAKHFLADGGTDQGRDQGDARISEDELIRIHNAGYPPAIDAGVLTVMASFSSWQGIKHHGHKQLLTDVLKGQMGFNGFIVGDWNAHDQVPGCTKFNCPTSLIAGLDMYMAADSWKQLYENTLAQVKDGTIPMARLDDAVRRILRVKVLAGLFEKPAPKDRPGLPGLETLGSPEHRAVGREAVRKSLVLLKNDKGTLPLSPKARVLVAGDGADNIGKQSGGWTISWQGTGNRNDEFPGATSILGGIRDAVADAGGSVEFDVAGQYKTKPDVAIVVFGEEPYAEFQGDVETLEYQPDQKQDLALLKKLKDQGIPVVAVFLSGRPMWVNPELNASDAFVAAWLPGTEGGGVADVLFTDKAGKVQHDFAGKLSYSWPRTAAQTTVNRGDADYNPLFAYGYGLTYKDKSKVGTLPEESGVPAEARQNAGIYFRAGALRLPGRFL,Fold improvement over wildtype CelA,+ (+ = 1.1 to 2.0 fold improvement over native CelA (SEQ ID NO: 4))
16 (protein) STAIAQEGAAPAAILHPEKWPRPATQRLIDPAVEKRVDALLKQLSVEEKVGQVIQGDIGTITPEDLRKYPLGSILAGGNSGPNGDDRAPPKEWLDLADAFYRVSLEKRPGHTPIPVLFGIDAVHGHGNIGSATIFPHNIALGATHDPELLRRIGEVTAVEMAATGIDWTFAPALSVVRDDRWGRTYEGFSEDPEIVASYSAAIVEGVQGKFGSKDFMAPGRIVASAKHFLADGGTDQGRDQGDARISEDELIRIHNAGYPPAIDAGVLTVMASFSSWQGIKHHGHKQLLTDVLKGQMGFNGFIVGDWNAHDQVPGCTKFNCPTSLIAGLDMYMAADSWKQLYENTLAQVKDGTIPMARLDDAVRRILRVKVLAGLFEKPAPKDRPGLPGLETLGSPEHRAVGREAVRKSLVLLKNDKGTLPLSPKARVLVAGDGADNIGKQSGGWTISWQGTGNRNDEFPGATSILGGIRDAVADAGGSVEFDVAGQYKTKPDVAIVVFGEEPYAEFQGDVETLEYQPDQKQDLALLKKLKDQGIPVVAVFLSGRPMWVNPELNASDAFVAAWLPGTEGGGVADVLFTDKAGKVQHDFAGKLSYSWPRTAAQTTVNRGDADYNPLFAYGYGLTYKDKSKVGTLPEESGVPAEARQNAGIYFRAGALRLPGRFL,Fold improvement over wildtype CelA,+ (+ = 1.1 to 2.0 fold improvement over native CelA (SEQ ID NO: 4))
14 (protein) STAIAQEGAAPAAILHPEKWPRPATQRLIDPAVEKRVDALLKQLSVEEKVGQVIQGDIGTITPEDLRKYPLGSILAGGNSGPNGDDRAPPKEWLDLADAFYRVSLEKRPGHTPIPVLFGIDAVHGHGNIGSATIFPHNIALGATHSPELLRRIGEVTAVEMAATGIDWTFAPALSVVRDDRWGRTYEGFSEDPEIVAAYSAAIVEGVQGKFGSKDFMAPGRIVASAKHFLADGGTDQGRDQGDARISEDELIRIHNAGYPPAIDAGVLTVMASFSSWQGIKHHGHKQLLTDVLKGQMGFNGFIVGDWNAHDQVPGCTKFNCPTSLIAGLDMYMAADSWKQLYENTLAQVKDGTIPMARLDDAVRRILRVKVLAGLFEKPAPKDRPGLPGLETLGSPEHRAVGREAVRKSLVLLKNDKGTLPLSPKARVLVAGDGADNIGKQSGGWTISWQGTGNRNDEFPGATSILGGIRDAVADAGGSVEFDVAGQYKTKPDVAIVVFGEEPYAEFQGDVETLEYQPDQKQDLALLKKLKDQGIPVVAVFLSGRPMWVNPELNASDAFVAAWLPGTEGGGVADVLFTDKAGKVQHDFAGKLSYSWPRTAAQTTVNRGDADYNPLFAYGYGLTYKDKSKVGTLPEESGVPAEARQNAGIYFRAGALRLPGRFL,Fold improvement over wildtype CelA,++ (++ = 2.1 to 2.6 fold improvement over native CelA (SEQ ID NO: 4))
15 (protein) STAIAQEGAAPAAILHPEKWPRPATQRLIDPAVEKRVDALLKQLSVEEKVGQVIQGDIGTITPEDLRKYPLGSILAGGNSGPNGDDRAPPKEWLDLADAFYRVSLEKRPGHTPIPVLFGIDAVHGHGNIGSATIFPHNIALGATHDPELLPRIGEVTAVEMAATGIDWTFAPALSVVRDDRWGRTYEGFSEDPEIVAAYSAAIVEGVQGKFGSKDFMAPGRIVASAKHFLADGGTDQGRDQGDARISEDELIRIHNAGYPPAIDAGVLTVMASFSSWQGIKHHGHKQLLTDVLKGQMGFNGFIVGDWNAHDQVPGCTKFNCPTSLIAGLDMYMAADSWKQLYENTLAQVKDGTIPMARLDDAVRRILRVKVLAGLFEKPAPKDRPGLPGLETLGSPEHRAVGREAVRKSLVLLKNDKGTLPLSPKARVLVAGDGADNIGKQSGGWTISWQGTGNRNDEFPGATSILGGIRDAVADAGGSVEFDVAGQYKTKPDVAIVVFGEEPYAEFQGDVETLEYQPDQKQDLALLKKLKDQGIPVVAVFLSGRPMWVNPELNASDAFVAAWLPGTEGGGVADVLFTDKAGKVQHDFAGKLSYSWPRTAAQTTVNRGDADYNPLFAYGYGLTYKDKSKVGTLPEESGVPAEARQNAGIYFRAGALRLPGRFL,Fold improvement over wildtype CelA,+ (+ = 1.1 to 2.0 fold improvement over native CelA (SEQ ID NO: 4))
17 (protein) STAIAQEGAAPAAILHPEKWPRPATQRLIDPAVEKRVDALLKQLSVEEKVGQVIQGDIGTITPEDLRKYPLGSILAGGNSGPNGDDRAPPKEWLDLADAFYRVSLEKRPGHTPIPVLFGIDAVHGHGNIGSATIFPHNIALGATHDPELLRRIGEVTAVEMAATGIDWTFAPALSVVRDDRWGRTYEGFSEDPEIVAAYSAAIVEGVQGKFGSKDFMAMGRIVASAKHFLADGGTDQGRDQGDARISEDELIRIHNAGYPPAIDAGVLTVMASFSSWQGIKHHGHKQLLTDVLKGQMGFNGFIVGDWNAHDQVPGCTKFNCPTSLIAGLDMYMAADSWKQLYENTLAQVKDGTIPMARLDDAVRRILRVKVLAGLFEKPAPKDRPGLPGLETLGSPEHRAVGREAVRKSLVLLKNDKGTLPLSPKARVLVAGDGADNIGKQSGGWTISWQGTGNRNDEFPGATSILGGIRDAVADAGGSVEFDVAGQYKTKPDVAIVVFGEEPYAEFQGDVETLEYQPDQKQDLALLKKLKDQGIPVVAVFLSGRPMWVNPELNASDAFVAAWLPGTEGGGVADVLFTDKAGKVQHDFAGKLSYSWPRTAAQTTVNRGDADYNPLFAYGYGLTYKDKSKVGTLPEESGVPAEARQNAGIYFRAGALRLPGRFL,Fold improvement over wildtype CelA,+ (+ = 1.1 to 2.0 fold improvement over native CelA (SEQ ID NO: 4))
